Source: patent US20230393135A1

Tests used:
[1] = molecular target: SARS-CoV-2 S protein trimer with the K417N/E484K/N501Y mutations (present in the B.1.351 variant) (SARS-CoV-2) (UniProt P0DTC2)
[2] = molecular target: SARS-CoV-2 S protein trimer with the Δ69-70 Y453F mutations (present in the mink variant) (SARS-CoV-2) (UniProt P0DTC2)

**Q.** For REGN10933 neutralizing antibody, which fold loss in IC80 activity [1] is on record?
**A.** 61 fold

**Q.** What about the fold loss in IC80 activity [2] of the same substance?
**A.** 67 fold
